# Experimental data reported in publication PMC10628234.
# B1: 5'-FITC 40 bp dsDNA (dsDNA)
# DNA 1: TTGATTACCGTCAGTTGGAGCCCATATTATACATGAAGAC
# DNA 2: GTCTTCATGTATAATATGGGCTCCAACTGACGGTAATCAA
# B2: 5'-FITC 60 bp dsDNA (dsDNA)
# DNA 1: TCACTCAAGAAGCAGACACAGTAAGACACGGTTTAGCTGATTGTTTATCGATTAGGTCAA
# DNA 2: TTGACCTAATCGATAAACAATCAGCTAAACCGTGTCTTACTGTGTCTGCTTCTTGAGTGA
# B3: 5'-FITC 20 bp dsDNA (40% GC) (dsDNA)
# DNA 1: AGTTTAGTGCGCTAATCTGA
# DNA 2: TCAGATTAGCGCACTAAACT
# B4: d(CG)10 duplex, 100% GC (dsDNA)
# DNA 1: CGCGCGCGCGCGCGCGCGCG
# DNA 2: CGCGCGCGCGCGCGCGCGCG
# Assays:
# CbFic2 [1] = biological target: T1, CbFic2 (Coxiella burnetii, UniProt Q83DB6 1-378); experiment: fluorescence anisotropy; Hill 0.772; details: protein: recombinant; tags: N-terminal G-H-M remnant after TEV cleavage; label: 5'-FITC on one strand
# CbFic2 [2] = biological target: T1, CbFic2; experiment: fluorescence anisotropy; Hill 0.988; details: protein: recombinant; tags: N-terminal G-H-M remnant after TEV cleavage; label: 5'-FITC on one strand
# CbFic2 [3] = biological target: T1, CbFic2; experiment: fluorescence anisotropy; Hill 1.354; details: protein: recombinant; tags: N-terminal G-H-M remnant after TEV cleavage; label: 5'-FITC on one strand
# TS-CbFic2 = TS-CbFic2 (Coxiella burnetii, UniProt Q83DB6 1-378); experiment: fluorescence anisotropy; Hill 1.082; details: protein: recombinant; tags: N-terminal Twin-Strep + EK site (G-H-M-TS-G-A-EK-H-M); label: 5'-FITC on one strand
# CbFic2 [4] = biological target: T1, CbFic2; experiment: circular dichroism; details: protein: recombinant; tags: N-terminal G-H-M remnant after TEV cleavage; blunt, self-complementary, 2 copies
binder,measurement,setting,value
B1,Kd,CbFic2 [1],0.108 µM
B2,Kd,CbFic2 [2],0.0365 µM
B3,Kd,CbFic2 [3],0.22 µM
same,Kd,TS-CbFic2,0.116 µM
B4,binding result,CbFic2 [4],binds
